Legend:
HeLa Kyoto [1] = experiment: solubility change mitosis vs G1/S (difference of NP-40 vs SDS log2 ratios) (log2 ratio difference); higher = more soluble in mitosis
HeLa Kyoto [2] = experiment: solubility in G1/S (NP-40 vs SDS abundance) (log2 ratio); higher = more soluble; conditions: cell cycle stage: G1/S
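Wherever solubility change mitosis vs G1/S (difference of NP-40 vs SDS log2 ratios) is given: synchronized HeLa Kyoto cells (double thymidine block for G1/S, nocodazole release for mitosis), protein amounts in NP-40 versus SDS lysates quantified by mass spectrometry, three biological replicates.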
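Wherever solubility in G1/S (NP-40 vs SDS abundance) is given: HeLa Kyoto cells arrested at G1/S by double thymidine block, proteins quantified by TMT10plex mass spectrometry in mild NP-40 versus SDS extracts, three biological replicates.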

ATRN, sequence (chain, as listed by the source): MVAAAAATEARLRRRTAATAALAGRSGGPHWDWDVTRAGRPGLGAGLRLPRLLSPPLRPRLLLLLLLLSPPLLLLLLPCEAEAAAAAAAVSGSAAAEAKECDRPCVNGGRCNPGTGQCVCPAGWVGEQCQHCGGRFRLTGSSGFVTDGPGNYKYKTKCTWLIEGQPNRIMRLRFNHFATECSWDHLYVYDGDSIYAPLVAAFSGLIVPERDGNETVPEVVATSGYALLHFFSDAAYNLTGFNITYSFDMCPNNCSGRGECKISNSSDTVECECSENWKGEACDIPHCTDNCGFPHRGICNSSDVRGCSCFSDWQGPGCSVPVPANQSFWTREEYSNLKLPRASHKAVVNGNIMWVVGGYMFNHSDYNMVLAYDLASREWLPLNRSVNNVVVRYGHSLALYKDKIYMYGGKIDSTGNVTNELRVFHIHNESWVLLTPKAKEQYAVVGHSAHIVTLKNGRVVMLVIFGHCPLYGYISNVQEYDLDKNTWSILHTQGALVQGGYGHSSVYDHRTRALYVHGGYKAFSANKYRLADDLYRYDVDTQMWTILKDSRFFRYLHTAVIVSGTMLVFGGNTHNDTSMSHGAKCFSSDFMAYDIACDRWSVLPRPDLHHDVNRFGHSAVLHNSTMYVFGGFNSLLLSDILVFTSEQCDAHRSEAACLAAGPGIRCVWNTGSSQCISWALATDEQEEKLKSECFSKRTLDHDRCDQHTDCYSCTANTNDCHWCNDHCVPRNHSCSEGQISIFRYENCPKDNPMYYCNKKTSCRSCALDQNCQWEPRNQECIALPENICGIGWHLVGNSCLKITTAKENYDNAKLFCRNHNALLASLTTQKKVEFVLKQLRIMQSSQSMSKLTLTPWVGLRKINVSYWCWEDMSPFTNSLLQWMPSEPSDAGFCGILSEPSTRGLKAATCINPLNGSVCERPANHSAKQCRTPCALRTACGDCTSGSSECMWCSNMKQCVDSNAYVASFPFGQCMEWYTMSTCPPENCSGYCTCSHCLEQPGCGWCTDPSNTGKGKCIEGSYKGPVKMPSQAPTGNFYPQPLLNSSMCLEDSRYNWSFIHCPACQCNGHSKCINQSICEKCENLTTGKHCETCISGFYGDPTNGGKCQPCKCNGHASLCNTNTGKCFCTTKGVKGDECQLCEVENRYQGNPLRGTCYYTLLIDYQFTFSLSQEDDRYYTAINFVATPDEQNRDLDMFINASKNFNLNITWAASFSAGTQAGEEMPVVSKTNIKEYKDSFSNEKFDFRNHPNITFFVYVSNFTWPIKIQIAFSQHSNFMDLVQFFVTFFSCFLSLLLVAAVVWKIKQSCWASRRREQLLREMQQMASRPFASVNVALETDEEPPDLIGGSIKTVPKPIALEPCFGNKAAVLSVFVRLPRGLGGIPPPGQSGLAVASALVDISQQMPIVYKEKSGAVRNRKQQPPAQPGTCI

Row | Substance | solubility change mitosis (log2) (HeLa Kyoto [1]) | solubility in G1/S (log2) (HeLa Kyoto [2])
1 | MSGSCAAPGPGSGSSPAACRFAHYFVLCGIDADSGLEPDELAGENFDQSPLRRTFKSKVLAHYPQNIEWNPFDQDAVNMLCMPKGLSFRTQTDNKDPQFHSFIITREDGSRTYGFVLTFYEEVTSKQICTAMQTLYQMHNAEHYSSVYASSSCSMDSLASSLDEGDTTSLLKLQRYNSYDISRDTLYVSKSICLITPLPFMQACKKFLIQLYKAVTSQQPPPLPLESYIHNILYEVPLPPPGRSLKFYGVYEPVICQRPGPSELPLSDYPLREAFELLGLENLVQVFTCVLLEMQILLYSQDYQRLMTVAEGITTLLFPFQWQHVYVPILPASLLHFLDAPVPYLMGLQSKEGTDRSKLELPQEANLCFVDIDNHFIELPEEFPQFPNKVDFIQELSEVLVQFGIPPEGSLHCSESTSKLKNMVLKDLVNDKKNGNVCTNNISMYELLKGNETIARLQALAKRTGVAVEKMDLSASLGEKDKDLKLHCEEAELRDYQLNVQLREVFANRFTQMFADYEAFVIQTAQDMESWLTNREQMQNFDKASFLSDQPEPYLPFLSRFIETQMFATFIDNKIMSQWEEKDPLLRVFDTRIDKIRLYNVRAPTLRTSIYQKCSTLKEAAQSIEQRLMKMDHTAIHPHLLDMKIGQGKYEQGFFPKLQSDVLATGPTSNNRWVSRSATAQRRKERLRQHSEHVGLDNDLREKYMQEARSLGKNLRQPKLSDLSPAVIAQTNCKFVEGLLKECRMKTKRMLVEKMGHEAVELGHGEANITGLEENTLIASLCDLLERIWSHGLQVKQGKSALWSHLIQFQDREEKQEHLAESPVALGPERRKSDSGVMLPTLRVSLIQDMRHIQNMSEIKTDVGRARAWIRLSLEKKLLSQHLKQLLSNQPLTKKLYKRYAFLRCEEEREQFLYHLLSLNAVDYFCFTSVFTTIMIPYRSVIIPIKKLSNAIITSNPWICVSGELGDTGVMQIPKNLLEMTFECQNLGKLTTVQIGHDNSGLLAKWLVDCVMVRNEITGHTYRFPCGRWLGKGIDDGSLERILIGELMTSASDEDLVKQCRTPPQQKSPTTARRLSITSLTGKNNKPNAGQIQEGIGEAVNNIVKHFHKPEKERGSLTVLLCGENGLVAALEQVFHHGFKSARIFHKNVFIWDFIEKVVAYFETTDQILDNEDDVLIQKSSCKTFCHYVNAINTAPRNIGKDGKFQILVCLGTRDRLLPQWIPLLAECPAITRMYEESALLRDRMTVNSLIRILQTIQDFTIVLEGSLIKGVDV [DENND5B] | -0.179 | -0.149
2 | MPGRHVSRVRALYKRVLQLHRVLPPDLKSLGDQYVKDEFRRHKTVGSDEAQRFLQEWEVYATALLQQANENRQNSTGKACFGTFLPEEKLNDFRDEQIGQLQELMQEATKPNRQFSISESMKPKF [SDHAF3] | 0.134 | 0.106
3 | MAAGGSGGRASCPPGVGVGPGTGGSPGPSANAAATPAPGNAAAAAAAAAAAAAAPGPTPPAPPGPGTDAQAAGAERAEEAAGPGAAALQREAAYNWQASKPTVQERFAFLFNNEVLCDVHFLVGKGLSSQRIPAHRFVLAVGSAVFDAMFNGGMATTSTEIELPDVEPAAFLALLKFLYSDEVQIGPETVMTTLYTAKKYAVPALEAHCVEFLKKNLRADNAFMLLTQARLFDEPQLASLCLENIDKNTADAITAEGFTDIDLDTLVAVLERDTLGIREVRLFNAVVRWSEAECQRQQLQVTPENRRKVLGKALGLIRFPLMTIEEFAAGPAQSGILVDREVVSLFLHFTVNPKPRVEFIDRPRCCLRGKECSINRFQQVESRWGYSGTSDRIRFSVNKRIFVVGFGLYGSIHGPTDYQVNIQIIHTDSNTVLGQNDTGFSCDGSASTFRVMFKEPVEVLPNVNYTACATLKGPDSHYGTKGLRKVTHESPTTGAKTCFTFCYAAGNNNGTSVEDGQIPEVIFYT [BTBD2] | 0.0341 | -0.317
4 | MGRAVKVLQLFKTLHRTRQQVFKNDARALEAARIKINEEFKNNKSETSSKKIEELMKIGSDVELLLRTSVIQGIHTDHNTLKLVPRKDLLVENVPYCDAPTQKQ [LYRM7] | 0.302 | 0.581
5 | MQSESGIVPDFEVGEEFHEEPKTYYELKSQPLKSSSSAEHPGASKPPISSSSMTSRILLRQQLMREQMQEQERREQQQKLQAAQFMQQRVPVSQTPAINVSVPTTLPSATQVPMEVLKVQTHLENPTKYHIQQAQRQQVKQYLSTTLANKHANQVLSLPCPNQPGDHVMPPVPGSSAPNSPMAMLTLNSNCEKEGFYKFEEQNRAESECPGMNTHSRASCMQMDDVIDDIISLESSYNEEILGLMDPALQMANTLPVSGNLIDLYGNQGLPPPGLTISNSCPANLPNIKRELTACIFPTESEARALAKERQKKDNHNLIERRRRFNINDRIKELGTLIPKSNDPDMRWNKGTILKASVDYIRKLQREQQRAKELENRQKKLEHANRHLLLRIQELEMQARAHGLSLIPSTGLCSPDLVNRIIKQEPVLENCSQDLLQHHADLTCTTTLDLTDGTITFNNNLGTGTEANQAYSVPTKMGSKLEDILMDDTLSPVGVTDPLLSSVSPGASKTSSRRSSMSMEETEHTC [MITF] | 0.021 | 0.326
6 | MAEGGGPEPGEQERRSSGPRPPSARDLQLALAELYEDEVKCKSSKSNRPKATVFKSPRTPPQRFYSSEHEYSGLNIVRPSTGKIVNELFKEAREHGAVPLNEATRASGDDKSKSFTGGGYRLGSSFCKRSEYIYGENQLQDVQILLKLWSNGFSLDDGELRPYNEPTNAQFLESVKRGEIPLELQRLVHGGQVNLDMEDHQDQEYIKPRLRFKAFSGEGQKLGSLTPEIVSTPSSPEEEDKSILNAVVLIDDSVPTTKIQIRLADGSRLIQRFNSTHRILDVRNFIVQSRPEFAALDFILVTSFPNKELTDESLTLLEADILNTVLLQQLK [UBXN2B] | 0.053 | 0.562
7 | MFSRNHRSRVTVARGSALEMEFKRGRFRLSLFSDLPEDTELQRKLDHEIRMREGACKLLAACSQREQALEATKSLLVCNSRILSYMGELQRRKEAQVLGKTSRRPSDSGPPAERSPCRGRVCISDLRIPLMWKDTEYFKNKGDLHRWAVFLLLQLGEHIQDTEMILVDRTLTDISFQSNVLFAEAGPDFELRLELYGACVEEEGALTGGPKRLATKLSSSLGRSSGRRVRASLDSAGGSGSSPILLPTPVVGGPRYHLLAHTTLTLAAVQDGFRTHDLTLASHEENPAWLPLYGSVCCRLAAQPLCMTQPTASGTLRVQQAGEMQNWAQVHGVLKGTNLFCYRQPEDADTGEEPLLTIAVNKETRVRAGELDQALGRPFTLSISNQYGDDEVTHTLQTESREALQSWMEALWQLFFDMSQWKQCCDEIMKIETPAPRKPPQALAKQGSLYHEMAIEPLDDIAAVTDILTQREGARLETPPPWLAMFTDQPALPNPCSPASVAPAPDWTHPLPWGRPRTFSLDAVPPDHSPRARSVAPLPPQRSPRTRGLCSKGQPRTWLQSPV [RTKN] | -0.0634 | 0.208
8 | MSAALLRRGLELLAASEAPRDPPGQAKPRGAPVKRPRKTKAIQAQKLRNSAKGKVPKSALDEYRKRECRDHLRVNLKFLTRTRSTVAESVSQQILRQNRGRKACDRPVAKTKKKKAEGTVFTEEDFQKFQQEYFGS [RPS19BP1] | 0.671 | -0.897
9 | MATPGSEPQPFVPALSVATLHPLHHPHHHHHHHQHHGGTGAPGGAGGGGGGSGGFNLPLNRGLERALEEAANSGGLNLSARKLKEFPRTAAPGHDLSDTVQADLSKNRLVEVPMELCHFVSLEILNLYHNCIRVIPEAIVNLQMLTYLNLSRNQLSALPACLCGLPLKVLIASNNKLGSLPEEIGQLKQLMELDVSCNEITALPQQIGQLKSLRELNVRRNYLKVLPQELVDLSLVKFDFSCNKVLVIPICFREMKQLQVLLLENNPLQSPPAQICTKGKVHIFKYLSIQACQIKTADSLYLHTMERPHLHQHVEDGKKDSDSGVGSDNGDKRLSATEPSDEDTVSLNVPMSNIMEEEQIIKEDSCHRLSPVKGEFHQEFQPEPSLLGDSTNSGEERDQFTDRADGLHSEFMNYKARAEDCEELLRIEEDVHWQTEGIISSSKDQDMDIAMIEQLREAVDLLQDPNGLSTDITERSVLNLYPMGSAEALELQDSALNGQIQLETSPVCEVQSDLTLQSNGSQYSPNEIRENSPAVSPTTNSTAPFGLKPRSVFLRPQRNLESIDPQFTIRRKMEQMREEKELVEQLRESIEMRLKVSLHEDLGAALMDGVVLCHLVNHIRPRSVASIHVPSPAVPKLSMAKCRRNVENFLEACRKLGVPEADLCSPCDILQLDFRHIRKTVDTLLALGEKAPPPTSALRSRDLIGFCLVHILFIVLVYITYHWNALSA [LRCH1] | -0.186 | -0.0599
10 | MVAMAAGPSGCLVPAFGLRLLLATVLQAVSAFGAEFSSEACRELGFSSNLLCSSCDLLGQFNLLQLDPDCRGCCQEEAQFETKKLYAGAILEVCGUKLGRFPQVQAFVRSDKPKLFRGLQIKYVRGSDPVLKLLDDNGNIAEELSILKWNTDSVEEFLSEKLERI [SEP15] | -0.028 | 0.305
11 | MAGEEINEDYPVEIHEYLSAFENSIGAVDEMLKTMMSVSRNELLQKLDPLEQAKVDLVSAYTLNSMFWVYLATQGVNPKEHPVKQELERIRVYMNRVKEITDKKKAGKLDRGAASRFVKNALWEPKSKNASKVANKGKSKS [C1D] | 0.679 | -0.223
12 | ATRN | -0.041 | 0.238
13 | RIMS1 | 0.0888 | 0.0741
14 | DOCK4 | 0.0146 | -0.259
15 | MLFTVSCSKMSSIVDRDDSSIFDGLVEEDDKDKAKRVSRNKSEKKRRDQFNVLIKELGSMLPGNARKMDKSTVLQKSIDFLRKHKEITAQSDASEIRQDWKPTFLSNEEFTQLMLEALDGFFLAIMTDGSIIYVSESVTSLLEHLPSDLVDQSIFNFIPEGEHSEVYKILSTHLLESDSLTPEYLKSKNQLEFCCHMLRGTIDPKEPSTYEYVKFIGNFKSLNSVSSSAHNGFEGTIQRTHRPSYEDRVCFVATVRLATPQFIKEMCTVEEPNEEFTSRHSLEWKFLFLDHRAPPIIGYLPFEVLGTSGYDYYHVDDLENLAKCHEHLMQYGKGKSCYYRFLTKGQQWIWLQTHYYITYHQWNSRPEFIVCTHTVVSYAEVRAERRRELGIEESLPETAADKSQDSGSDNRINTVSLKEALERFDHSPTPSASSRSSRKSSHTAVSDPSSTPTKIPTDTSTPPRQHLPAHEKMVQRRSSFSSQSINSQSVGSSLTQPVMSQATNLPIPQGMSQFQFSAQLGAMQHLKDQLEQRTRMIEANIHRQQEELRKIQEQLQMVHGQGLQMFLQQSNPGLNFGSVQLSSGNSSNIQQLAPINMQGQVVPTNQIQSGMNTGHIGTTQHMIQQQTLQSTSTQSQQNVLSGHSQQTSLPSQTQSTLTAPLYNTMVISQPAAGSMVQIPSSMPQNSTQSAAVTTFTQDRQIRFSQGQQLVTKLVTAPVACGAVMVPSTMLMGQVVTAYPTFATQQQQSQTLSVTQQQQQQSSQEQQLTSVQQPSQAQLTQPPQQFLQTSRLLHGNPSTQLILSAAFPLQQSTFPQSHHQQHQSQQQQQLSRHRTDSLPDPSKVQPQ [CLOCK] | -0.192 | 0.134
